{"source": "paper PMC7382273", "about": "“Rubisco accumulation factor 1 (Raf1) plays essential roles in mediating Rubisco assembly and carboxysome biogenesis” (Proceedings of the National Academy of Sciences of the …, 2020)", "proteins": {"B1": {"name": "Rubisco accumulation factor 1 (Raf1) (Synechococcus elongatus PCC7942), recombinant (natural protein, UniProt Q31Q05 1-356, looked up)", "chain": "MREFTPTTLSEEERQELLGQLRRKEGRWLAWARACQTLLKNGLNPQTLFEATGFEPIQQNQITVAMQVYDSILRQDPPAHVRETYQEWGSDLLYELRELDQEQRSLCAQLALERKLDADQIREVAKATKDFCRLPKQPENFDRHPGDAVAHQCWRLAQERTDLTERSRLIARGLQFAQSAGARALIEALLLDLSGVPSRKPPMLPIYRLETEEDLPRLLPFAGTLPLSSSQIEAIAAVEAEGPFGLVSSPQGQQWLALPGWQAILTAEDPIACLEQIDRLPNAPEGPTEAVVLVVDRADRDWDADHFFLVEQAEGARIQWSPSAIAAPILGRLVLILRPKRVLDEAAIATPWQFEE", "notes": "Raf1, Rubisco accumulation (assembly) factor 1, Synechococcus elongatus PCC7942, gene synpcc7942_0833 amplified from genomic DNA; N-terminal α-helical domain (Raf1α), flexible linker, C-terminal β-sheet dimerization domain (Raf1β); Only the Raf1α domains are modelled in PDB 6SMH; Raf1β could not be resolved; Four Raf1 dimers (eight chains) sit on one RbcL8 core; also called Rubisco assembly …"}, "B2": {"name": "Rubisco large subunit RbcL (Synechococcus elongatus PCC7942), recombinant, in the RbcL-Raf1 supercomplex (natural protein, UniProt Q31NB3 1-472, looked up)", "chain": "MPKTQSAAGYKAGVKDYKLTYYTPDYTPKDTDLLAAFRFSPQPGVPADEAGAAIAAESSTGTWTTVWTDLLTDMDRYKGKCYHIEPVQGEENSYFAFIAYPLDLFEEGSVTNILTSIVGNVFGFKAIRSLRLEDIRFPVALVKTFQGPPHGIQVERDLLNKYGRPMLGCTIKPKLGLSAKNYGRAVYECLRGGLDFTKDDENINSQPFQRWRDRFLFVADAIHKSQAETGEIKGHYLNVTAPTCEEMMKRAEFAKELGMPIIMHDFLTAGFTANTTLAKWCRDNGVLLHIHRAMHAVIDRQRNHGIHFRVLAKCLRLSGGDHLHSGTVVGKLEGDKASTLGFVDLMREDHIEADRSRGVFFTQDWASMPGVLPVASGGIHVWHMPALVEIFGDDSVLQFGGGTLGHPWGNAPGATANRVALEACVQARNEGRDLYREGGDILREAGKWSPELAAALDLWKEIKFEFETMDKL", "notes": "RbcL, large subunit of ribulose-1,5-bisphosphate carboxylase/oxygenase, Synechococcus elongatus PCC7942, gene synpcc7942_1426 amplified from genomic DNA; The complex was captured on Ni-IMAC as a 'His-fusion complex'; also called RbcL8; RbcL8 core; source: E. coli BL21 DE3, co-expressed with Raf1 (pET19b-RbcL-Raf1) and GroES/EL, purified as a complex (Ni-IMAC, Superdex 200)"}}, "target": "the molecule itself", "experiment": "cryo-EM structure; RbcL-Raf1 supercomplex co-expressed with GroES/EL in E. coli, purified by Ni-IMAC and Superdex 200; 1.2 mg/mL on Quantifoil grids; 200 kV Tecnai F20; 16,022 particles; 4.28 Å"}
{"protein": "B1", "values": [{"measurement": "stoichiometry N", "value": 2}]}
{"protein": "B2", "values": [{"measurement": "stoichiometry N", "value": 8}]}
